Consider 1 protein from US20030082746.

The target of data set [1] is T1, pro-transglutaminase derived from S. mobaraense IFO13819 (transglutaminase having the pro-structure part).
T1 chain: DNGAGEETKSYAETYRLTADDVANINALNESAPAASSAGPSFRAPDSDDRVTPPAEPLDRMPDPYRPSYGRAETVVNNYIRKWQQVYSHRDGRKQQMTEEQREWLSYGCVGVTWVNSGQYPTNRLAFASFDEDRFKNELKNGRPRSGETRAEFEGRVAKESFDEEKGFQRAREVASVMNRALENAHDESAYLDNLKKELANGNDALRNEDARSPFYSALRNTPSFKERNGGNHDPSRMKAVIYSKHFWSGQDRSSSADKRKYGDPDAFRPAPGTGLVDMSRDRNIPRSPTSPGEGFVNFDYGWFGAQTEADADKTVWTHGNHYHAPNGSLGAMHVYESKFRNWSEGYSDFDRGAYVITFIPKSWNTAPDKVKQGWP

Data set [2] addresses T2, pro-transglutaminase of S. mobaraense, Ala-Pro deletion type of the pro-structure part.
T2 chain: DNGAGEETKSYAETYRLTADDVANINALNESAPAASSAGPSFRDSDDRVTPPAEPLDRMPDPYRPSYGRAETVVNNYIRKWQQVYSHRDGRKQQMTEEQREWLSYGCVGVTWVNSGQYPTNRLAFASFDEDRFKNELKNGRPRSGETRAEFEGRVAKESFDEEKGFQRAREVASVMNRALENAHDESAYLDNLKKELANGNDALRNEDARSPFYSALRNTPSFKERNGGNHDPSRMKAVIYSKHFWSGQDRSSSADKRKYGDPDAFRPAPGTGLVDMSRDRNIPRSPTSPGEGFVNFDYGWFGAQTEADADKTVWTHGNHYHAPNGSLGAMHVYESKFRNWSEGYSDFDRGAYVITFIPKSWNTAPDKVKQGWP

Data set [3] has as its target T3, pro-transglutaminase of S. mobaraense, Asp deletion type of the pro-structure part.
T3 chain: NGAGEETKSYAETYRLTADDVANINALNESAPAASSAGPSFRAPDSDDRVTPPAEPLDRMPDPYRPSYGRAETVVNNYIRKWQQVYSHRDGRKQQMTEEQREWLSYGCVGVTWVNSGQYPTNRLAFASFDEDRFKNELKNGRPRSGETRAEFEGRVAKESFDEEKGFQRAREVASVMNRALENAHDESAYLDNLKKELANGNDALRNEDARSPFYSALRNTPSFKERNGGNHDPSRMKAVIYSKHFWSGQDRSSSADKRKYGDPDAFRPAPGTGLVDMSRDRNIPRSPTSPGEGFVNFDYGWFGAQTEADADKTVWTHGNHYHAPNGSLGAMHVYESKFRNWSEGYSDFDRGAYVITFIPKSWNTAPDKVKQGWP

Data set [4] concerns the target T4, pro-transglutaminase of S. mobaraense, Phe-Arg-Ala-Pro deletion type of the pro-structure part.
T4 chain: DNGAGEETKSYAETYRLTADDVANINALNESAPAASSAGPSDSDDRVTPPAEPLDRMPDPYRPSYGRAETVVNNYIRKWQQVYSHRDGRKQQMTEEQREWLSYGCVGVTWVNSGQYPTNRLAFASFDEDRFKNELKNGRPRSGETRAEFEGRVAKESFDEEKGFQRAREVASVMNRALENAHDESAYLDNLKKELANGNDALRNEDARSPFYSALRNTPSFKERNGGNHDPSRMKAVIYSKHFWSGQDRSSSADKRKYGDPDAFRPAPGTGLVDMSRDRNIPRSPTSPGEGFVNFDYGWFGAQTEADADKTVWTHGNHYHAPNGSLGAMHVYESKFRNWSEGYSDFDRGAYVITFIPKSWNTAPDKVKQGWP

Data set [5] has as its target T5, pro-transglutaminase of S. mobaraense, Asp-Asn-Gly-Ala-Gly-Glu deletion type of the pro-structure part.
T5 chain: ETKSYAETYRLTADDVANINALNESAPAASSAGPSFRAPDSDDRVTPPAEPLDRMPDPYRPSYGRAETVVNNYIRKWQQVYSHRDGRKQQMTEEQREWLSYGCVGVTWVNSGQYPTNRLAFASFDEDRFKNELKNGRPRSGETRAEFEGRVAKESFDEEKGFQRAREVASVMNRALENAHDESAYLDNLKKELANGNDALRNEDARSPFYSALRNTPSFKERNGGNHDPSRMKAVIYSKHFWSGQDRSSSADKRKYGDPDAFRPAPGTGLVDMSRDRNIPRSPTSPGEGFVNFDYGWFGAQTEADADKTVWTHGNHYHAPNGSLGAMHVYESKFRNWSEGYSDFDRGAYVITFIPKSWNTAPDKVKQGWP

The target in data set [6] is T6, pro-transglutaminase of S. mobaraense, Gly-Pro-Lys type modified variant of the pro-structure part.
T6 chain: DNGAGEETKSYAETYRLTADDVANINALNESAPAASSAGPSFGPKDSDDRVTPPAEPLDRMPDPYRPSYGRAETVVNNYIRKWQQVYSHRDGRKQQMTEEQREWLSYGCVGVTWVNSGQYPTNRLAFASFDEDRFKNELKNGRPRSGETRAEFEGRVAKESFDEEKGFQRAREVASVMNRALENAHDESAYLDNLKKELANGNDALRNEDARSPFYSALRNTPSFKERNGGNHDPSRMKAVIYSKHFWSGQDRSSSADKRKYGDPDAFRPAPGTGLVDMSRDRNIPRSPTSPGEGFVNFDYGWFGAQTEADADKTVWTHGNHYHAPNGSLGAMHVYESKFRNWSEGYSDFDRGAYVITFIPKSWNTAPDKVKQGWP

The target in data set [7] is T7, pro-transglutaminase of S. mobaraense, Gly-Pro-Arg type modified variant of the pro-structure part.
T7 chain: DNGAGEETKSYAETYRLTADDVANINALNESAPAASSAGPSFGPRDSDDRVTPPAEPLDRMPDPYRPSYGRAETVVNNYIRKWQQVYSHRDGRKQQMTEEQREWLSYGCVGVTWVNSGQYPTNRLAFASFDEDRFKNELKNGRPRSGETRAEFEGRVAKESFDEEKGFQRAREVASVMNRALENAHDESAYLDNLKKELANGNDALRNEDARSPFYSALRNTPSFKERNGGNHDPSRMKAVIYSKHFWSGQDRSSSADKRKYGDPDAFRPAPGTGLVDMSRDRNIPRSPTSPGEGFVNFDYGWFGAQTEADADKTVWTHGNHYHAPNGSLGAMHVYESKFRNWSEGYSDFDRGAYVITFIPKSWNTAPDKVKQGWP

Data set [8] has as its target T8, pro-transglutaminase of S. mobaraense, Phe-Arg-Ala-Pro deletion type and Lys insertion-variant of the pro-structure part.
T8 chain: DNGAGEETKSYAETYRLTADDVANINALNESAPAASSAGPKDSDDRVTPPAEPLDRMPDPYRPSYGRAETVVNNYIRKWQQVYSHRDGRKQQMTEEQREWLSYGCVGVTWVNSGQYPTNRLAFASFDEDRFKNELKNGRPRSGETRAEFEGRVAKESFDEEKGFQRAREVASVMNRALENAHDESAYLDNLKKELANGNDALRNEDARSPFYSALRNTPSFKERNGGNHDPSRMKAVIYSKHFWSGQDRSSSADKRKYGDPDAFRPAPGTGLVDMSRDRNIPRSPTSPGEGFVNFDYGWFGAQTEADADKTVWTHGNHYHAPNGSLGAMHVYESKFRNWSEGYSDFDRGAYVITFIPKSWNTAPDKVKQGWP

In data set [9] the target is T9, pro-transglutaminase of S. mobaraense, Phe-Arg-Ala-Pro deletion type and Arg insertion-variant of the pro-structure part.
T9 chain: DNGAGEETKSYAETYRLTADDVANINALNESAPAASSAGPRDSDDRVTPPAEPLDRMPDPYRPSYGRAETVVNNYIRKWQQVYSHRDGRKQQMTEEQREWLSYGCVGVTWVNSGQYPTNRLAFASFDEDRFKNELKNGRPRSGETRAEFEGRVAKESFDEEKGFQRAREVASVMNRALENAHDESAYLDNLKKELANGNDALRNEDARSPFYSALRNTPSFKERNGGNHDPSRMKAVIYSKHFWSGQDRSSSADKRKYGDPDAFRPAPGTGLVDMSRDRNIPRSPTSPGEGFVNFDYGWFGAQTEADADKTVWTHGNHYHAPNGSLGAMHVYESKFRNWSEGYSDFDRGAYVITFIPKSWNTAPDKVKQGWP

B1: SAMP45, serine protease produced by Streptomyces albogriseolus (protein)
chain: NGENSTAAGSSASATALKGKHRVTLITGDRVALDAKGRVVGLEPAEGREHIPVQIRRSDGHTLVVPADAARLVASGKLDQRLFDVTELNKAATRTAHRGGLKVIVGYRGAAKAAKADVRDAGTVRRTLTSLNADAVQTPQEAGAELWEAVTDGDRTASGVARVWLDGVRKASLDTSVGQIGTPKAWEAGYDGKGVKIAVLDTGVDATHPDLKGQVTASKNFTSAPTTGDVVGHGTHVASIAAGTGAQSKGTYKGVAPGAKILNGKVLDDAGFGDDSGILAGMEWAAAQGADIVNMSLGGMDTPETDPLEAAVDKLSAEKGILFAIAAGNEGPQSIGSPGSADSALTVGAVDDKDKLADFSSTGPRLGDGAVKPDLTAPGVDITAASAKGNDIAKEVGEKPAGYMTISGTSMATPHVAGAAALLKQQHPEWKYAELKGALTASTKDGKYTPFEQGSGRVQVDKAITQTVIAEPVSLSFGVQQWPHADDKPVTKKLTYRNLGTEDVTLKLTSTATGPKGKAAPAGFFTLGASTLTVPANGTASVDVTADTRLGGAVDGTYSAYVVATGAGQSVRTAAAVEREVESYNVTLKVLDRSGKATANYMAYLSGLTGLGKDRSYAPYEADGAVSVRVPKGGYVLDASVLVGADPETWRGADWLAQPKLDVTRNTTVTVDARKAKPVKVTVPGKAAKAQFASADYTIETNDSAVSYGWWLENYSGFRSAHLGPQITNGTLSQQWNTHFSNGAKAQYTAISGGKVKKLATGYTRAFKAKEFATVQVGMGAAASGKKGAVTAFGWLPGSSGASGFSQEQKLPSTRTLYLSTVNGVTWDLDFEQLGGVDNEGWPIYDAVYTIGVGKTYKGGKTYKETVNTAVFGPRLTSSYGVFRDGNSIYGVIPLFADGKGHAGSSEFSSAVTTLYRNGKKVGSNNDPLFGEEGFTVPSGDAAYRLTTSVKRSAKVAAASTRIDASWTFRSKKTSGEKQLPVSSARFAAVTGLDSKVAAGKKATFPVVVEGAAQGKNLKSLAVYVSYNGGKTWKKTTVTKGKITVKNPAKGKAISFRAKITDKKGNASLITIHNAYYGK
Regarding B1, the “N-terminal amino acid sequence of the cleaved transglutaminase” value in data set [1] is “it had the structure in which the 4 C-terminal amino acids of Phe-Arg-Ala-Pro from the pro-structure part was added to the naturally occurring mature transglutaminase”; in data set [2] it was “Phe-Arg was added to the N-terminal of the naturally occurring mature transglutaminase shown in SEQ ID NO: 5 in the transformant harboring pPKSPTG1 AP”; in [3], “Phe-Arg-Ala-Pro was added to the naturally occurring mature transglutaminase in the transformant harboring pPKSPTG1 D or pPKSPTG1 DNGAGE”; in data set [4] it was “Ser-Ala-Gly-Pro-Ser was added to the N-terminal of the naturally occurring mature transglutaminase in the transformant harboring pPKSPTG1 FRAP”; in data set [5], “Phe-Arg-Ala-Pro was added to the naturally occurring mature transglutaminase in the transformant harboring pPKSPTG1 D or pPKSPTG1 DNGAGE”; in data set [6] it was “the sequence identical to that of the naturally occurring mature transglutaminase was confirmed for C. glutamicum ATCC13869 harboring pVSS1 and pPKSPTG11, or pVSS1 and pPKSPTG12, which had Asp as the N-terminal amino acid residue”. Moreover, the “N-terminal amino acid sequence of the cleaved transglutaminase” value in data set [7] was “the sequence identical to that of the naturally occurring mature transglutaminase was confirmed for C. glutamicum ATCC13869 harboring pVSS1 and pPKSPTG11, or pVSS1 and pPKSPTG12, which had Asp as the N-terminal amino acid residue”; in data set [8], “Ser-Ala-Gly-Pro-Lys (SEQ ID NO: 69) or Ser-Ala-Gly-Pro-Arg (SEQ ID NO: 70) was found to be added to the sequence of the naturally occurring mature transglutaminase for C. glutamicum ATCC13869 harboring pVSS1 and pPKSPTG13, or pVSS1 and pPKSPTG14”; in data set [9], “Ser-Ala-Gly-Pro-Lys (SEQ ID NO: 69) or Ser-Ala-Gly-Pro-Arg (SEQ ID NO: 70) was found to be added to the sequence of the naturally occurring mature transglutaminase for C. glutamicum ATCC13869 harboring pVSS1 and pPKSPTG13, or pVSS1 and pPKSPTG14”.
